Source: paper PMC12781872

What was measured:
Assay in all cases: FRET
[1] = biological target: RNAP core beta' D359AzF Dylight488;sigmaA rpoC:D359 (Mycobacterium tuberculosis;Mycobacterium tuberculosis) (UniProt P9WGZ1+P9WGZ1+P9WGY9+P9WGY7+P9WGY5+P9WGI1)
[2] = biological target: RNAP core beta' D359AzF Dylight488;sigmaE rpoC:D359 (Mycobacterium tuberculosis;Mycobacterium tuberculosis) (UniProt P9WGZ1+P9WGZ1+P9WGY9+P9WGY7+P9WGY5+P9WGG7)
[3] = biological target: RNAP core beta' D359AzF Dylight488;sigmaF rpoC:D359 (Mycobacterium tuberculosis;Mycobacterium tuberculosis) (UniProt P9WGZ1+P9WGZ1+P9WGY9+P9WGY7+P9WGY5+P9WGI3)

Q: For “GTGGCCCTTGTGGGAGCGTCGGCCATAGCGGCCTCCCGGTCGGCTTGCGCTG / CAGCGCAAGCCGACCGGGAGGCCGCTATGGCCGACGCTCCCACAAGGGCCAC / UUUUUUUCCGCUAUG”, which Kd [1] is on record?
A: Its Kd is 162 nM.

Q: What about the Kd [2] of the same sequence?
A: The Kd was 335 nM.

Q: And the Kd [3]?
A: The Kd was 21.1 nM.
